The values that follow are results of earlier work, collected in publication PMC9441699 (Frontiers in Cellular and Infection Microbiology, 2022).

The data set concerns pseudotyped SARS-CoV.

B1: Lactoferrin: antiviral milk protein (protein, UniProt P02788 20-710, looked up)
Lactotransferrin: GRRRSVQWCAVSQPEATKCFQWQRNMRKVRGPPVSCIKRDSPIQCIQAIAENRADAVTLDGGFIYEAGLAPYKLRPVAAEVYGTERQPRTHYYAVAVVKKGGSFQLNELQGLKSCHTGLRRTAGWNVPIGTLRPFLNWTGPPEPIEAAVARFFSASCVPGADKGQFPNLCRLCAGTGENKCAFSSQEPYFSYSGAFKCLRDGAGDVAFIRESTVFEDLSDEAERDEYELLCPDNTRKPVDKFKDCHLARVPSHAVVARSVNGKEDAIWNLLRQAQEKFGKDKSPKFQLFGSPSGQKDLLFKDSAIGFSRVPPRIDSGLYLGSGYFTAIQNLRKSEEEVAARRARVVWCAVGEQELRKCNQWSGLSEGSVTCSSASTTEDCIALVLKGEADAMSLDGGYVYTAGKCGLVPVLAENYKSQQSSDPDPNCVDRPVEGYLAVAVVRRSDTSLTWNSVKGKKSCHTAVDRTAGWNIPMGLLFNQTGSCKFDEYFSQSCAPGSDPRSNLCALCIGDEQGENKCVPNSNERYYGYTGAFRCLAENAGDVAFVKDVTVLQNTDGNNNEAWAKDLKLADFALLCLDGKRKPVTEARSCHLAMAPNHAVVSRMDKVERLKQVLLHQQAKFGRNGSDCPDKFCLFQSETKNLLFNDNTECLARLHGKTTYEKYLGPQYVAGITNLKKCSTSPLLEACEFLRK
For the molecule B1, the “inhibition of pseudotyped SARS-CoV” value is reported as 50%.
